Results: patent publication US20060099150A1 (published 2006)

Target: T1, pIgR Domain 6 GST (D6-GST) fusion protein, species not stated (Schistosoma japonica, UniProt P08515 1-218 = GST)
T1 construct: also called D6-GST constructs
Test: SPR BIAcore, 1:1 Langmuir global fit 62.5-1000 nM; ligand not named

T1 sequence (P08515 whole entry, the tested form may be a part): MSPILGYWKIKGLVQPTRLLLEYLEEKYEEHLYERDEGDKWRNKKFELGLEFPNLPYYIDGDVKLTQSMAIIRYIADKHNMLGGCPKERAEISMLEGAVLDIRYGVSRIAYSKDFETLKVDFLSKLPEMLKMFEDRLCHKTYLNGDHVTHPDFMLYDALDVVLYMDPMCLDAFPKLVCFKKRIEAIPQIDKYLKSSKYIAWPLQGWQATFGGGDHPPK

Row | Binder | Ka | Kd | koff | kon
1 | single chain antibody sFv5A (scFv, also called sFv (positive control)) scFv: QVQLQQSGGGVVQPGRSLRLSCAASGFTFSSYAMHWVRQAPGKGLEWVSAISGSGGSTYYADSVKGRFTISRDNAKNSLYLQMNSLRAEDTAVYYCARDTRGYFDLWGRGTLVTVSSGGGGSGGGGSGGGGSSELTQDPAMSVALGQTVRITCQGDSLRKYHASWYQQRPRQAPRLVVYGKNERPSGIPERFSGSTSGDTASLTISGLQAEDEADYYCHSRDSNADLVVFGGGTKVTVLGAAAEQKLISEEDLNGAAHHHHHH | 6.31e+06 M⁻¹ | 158 nM | 0.00464 s⁻¹ | 29300 M⁻¹ s⁻¹
2 | sFv5AF-Cys (scFv, also called s5AF-Cys; sFv5AF-Cys starting material) scFv: DYKAKQVQLVQSGGGVVQPGRSLRLSCAASGFTFSSYAMHWVRQAPGKGLEWVSAISGSGGSTYYADSVKGRFTISRDNAKNSLYLQMNSLRAEDTAVYYCARDTRGYFDLWGRGTLVTVSSGGGGSGGGGSGGGGSSELTQDPAMSVALGQTVRITCQGDSLRKYHASWYQQRPRQAPRLVVYGKNERPSGIPERFSGSTSGDTASLTISGLQAEDEADYYCHSRDSNADLVVFGGGTKVTVLGGGGGSCAAAEQKLISEEDLNGAAHHHHHH | 9.84e+06 M⁻¹ | 102 nM | 0.00464 s⁻¹ | 37600 M⁻¹ s⁻¹
